Reference: patent US20210140973A1 (NITTO BOSEKI, published 2021)
Changes are numbered by the printed parent chain.

Assays:
Assay in all cases: Western blot: E. coli lysate with the GST-tagged peptide, SDS-PAGE, PVDF membrane, POD-labelled antibody diluted 1000-fold, ECL
[1] = target: T1, GST-tagged peptide H8 (positions 111 to 327 of the human IgG4 heavy chain constant region) (human, UniProt P01861 111-325 = IgG part)
T1 construct: E. coli lysate on Western blot; not shown: GST tag (glutathione S-transferase) linked to the N terminal, expressed from vector pGEX-6P-1
T1 sequence (P01861 other isoform, or with tags, fused parts or gaps): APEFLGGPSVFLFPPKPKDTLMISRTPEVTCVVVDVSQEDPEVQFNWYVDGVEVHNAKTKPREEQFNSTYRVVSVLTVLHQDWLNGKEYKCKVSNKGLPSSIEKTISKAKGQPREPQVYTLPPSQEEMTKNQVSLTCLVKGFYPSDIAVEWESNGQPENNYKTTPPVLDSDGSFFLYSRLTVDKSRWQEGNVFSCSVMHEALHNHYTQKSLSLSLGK
Protocol: (§1) Based on the designed amino acid sequences, base sequences suitable for expressing protein in E. coli were designed according to the protocol of GenScript Corporation, thereby preparing vector pGEX-6P-1 (GE Healthcare Bio-Sciences Corp.) to which the respective base sequences are inserted. The prepared expression plasmid was introduced to E. coli BL 21 strain, thereby obtaining a transformant. The transformant was cultured by an ordinary method and a protein expression was induced by IPTG. After the cells were collected by centrifugation, the cells were dissolved with an ordinary lysis solution, and subjected to ultrasonication. 6 μL of an SDS sample buffer solution was added to 6 μL of the obtained lysate. The respective prepared samples were subjected to a heat treatment at 95° C. for 5 minutes. 10 μL of the E. coli disrupted sample was added to each well of 5 to 20% electrophoresis gel (Atto Corportation) to which an SDS electrophoresis buffer solution was added. Similarly, a molecular weight standard (Bio-Rad Laboratories, Inc.) was added to each well and electrophoresed. After completing the electrophoresis, the electrophoresis gel was transcribed to a PVDF membrane (Millipore Corporation) with a transfer buffer solution. The PVDF membrane was immersed in a membrane blocking buffer solution, and then shaking was carried out at room temperature for 30 minutes. Amino groups of MaI4-08, MaI4-09, and MaI4-05-produced antibodies were subjected to a POD labeling treatment with a POD labeling kit (Dojindo Molecular Technologies, Inc.). The obtained labeled antibodies each were diluted 1000-fold by PBST. After the PVDF membrane was cleaned with PBST, the antibody solutions prepared each were added to the PVDF membrane, and then the reaction was performed at room temperature for 1 hour. After the PVDF membrane was cleaned by PBST, a signal was detected with ECL Prime Western Blotting Detection Reagents (GE Healthcare) with Image Quant Las4000.

[2] = target: T2, GST-tagged peptide H38 (H10 with R289K, E299Q and L325P) (human, UniProt P0DOX5 343-449 = IgG part)
T2 construct: not shown: N-terminal GST tag (from vector pGEX-6P-1) and any vector linker
T2 chain: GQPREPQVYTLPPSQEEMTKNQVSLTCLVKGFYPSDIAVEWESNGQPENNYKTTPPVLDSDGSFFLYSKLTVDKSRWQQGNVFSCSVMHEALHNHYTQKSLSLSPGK
Protocol: as §1

[3] = target: T3, GST-tagged peptide H2 (positions 1 to 274 of the human IgG4 heavy chain constant region) (human, UniProt P01861 1-274 = IgG part)
T3 construct: E. coli lysate on Western blot; not shown: GST tag (glutathione S-transferase) linked to the N terminal, expressed from vector pGEX-6P-1
T3 sequence (P01861 1-274): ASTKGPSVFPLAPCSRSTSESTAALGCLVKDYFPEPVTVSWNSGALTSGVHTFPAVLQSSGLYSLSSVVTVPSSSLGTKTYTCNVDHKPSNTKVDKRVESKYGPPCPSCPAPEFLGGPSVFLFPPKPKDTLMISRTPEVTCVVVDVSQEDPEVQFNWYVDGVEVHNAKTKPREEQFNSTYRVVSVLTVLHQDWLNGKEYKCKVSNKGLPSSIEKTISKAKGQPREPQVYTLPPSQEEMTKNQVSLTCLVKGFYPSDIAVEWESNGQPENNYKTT
Protocol: as §1

[4] = target: T4, GST-tagged peptide H34 (H10 with proline for leucine at position 325) (human, UniProt P01861 221-324 = IgG part)
T4 construct: not shown: GST tag (glutathione S-transferase) linked to the N terminal, expressed from vector pGEX-6P-1
Protocol: as §1

[5] = target: T5, GST-tagged peptide H10 (positions 221 to 327 of the human IgG4 heavy chain constant region, CH3 region) (human, UniProt P01861 221-325 = IgG part)
T5 construct: E. coli lysate on Western blot; not shown: GST tag (glutathione S-transferase) linked to the N terminal, expressed from vector pGEX-6P-1
Protocol: as §1

[6] = target: T6, GST-tagged peptide H36 (positions 221 to 327 with the human IgG4 specific sequence replaced by the … (human, UniProt P0DOX5 343-449 = IgG part))
T6 construct: not shown: GST tag (glutathione S-transferase) linked to the N terminal, expressed from vector pGEX-6P-1
Protocol: as §1

[7] = target: T7, GST-tagged peptide H3 (positions 1 to 220 of the human IgG4 heavy chain constant region) (human, UniProt P01861 1-220 = IgG part)
T7 construct: E. coli lysate on Western blot; not shown: GST tag (glutathione S-transferase) linked to the N terminal, expressed from vector pGEX-6P-1
T7 sequence (P01861 1-220): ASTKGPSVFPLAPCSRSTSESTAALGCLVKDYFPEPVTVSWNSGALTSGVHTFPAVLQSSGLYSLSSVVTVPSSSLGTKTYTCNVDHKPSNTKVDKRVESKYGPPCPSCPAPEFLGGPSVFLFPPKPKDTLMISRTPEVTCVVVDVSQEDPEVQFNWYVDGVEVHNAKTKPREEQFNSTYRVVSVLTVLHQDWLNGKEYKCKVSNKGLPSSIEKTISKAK
Protocol: as §1

[8] = target: T8, GST-tagged peptide H32 (H10 with lysine for arginine at position 289) (human, UniProt P01861 221-325 = IgG part)
T8 construct: not shown: GST tag (glutathione S-transferase) linked to the N terminal, expressed from vector pGEX-6P-1
T8 chain: T2 chain with Q79E, P105L
Protocol: as §1

[9] = target: T9, GST-tagged peptide H9 (positions 166 to 327 of the human IgG4 heavy chain constant region) (human, UniProt P01861 166-325 = IgG part)
T9 construct: E. coli lysate on Western blot; not shown: GST tag (glutathione S-transferase) linked to the N terminal, expressed from vector pGEX-6P-1
T9 sequence (P01861 other isoform, or with tags, fused parts or gaps): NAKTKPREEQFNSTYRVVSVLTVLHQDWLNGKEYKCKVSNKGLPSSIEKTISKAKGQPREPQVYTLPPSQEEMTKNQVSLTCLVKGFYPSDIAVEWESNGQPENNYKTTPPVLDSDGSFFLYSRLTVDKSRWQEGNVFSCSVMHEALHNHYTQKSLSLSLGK
Protocol: as §1

H-39 = target: T10, H-39
T10 construct: not shown: N-terminal GST tag and the vector-coded linker of pGEX-6P-1
T10 chain: T2 chain with Q15R, E16D, M18L, Q79E
Protocol: as §1

[10] = target: T11, GST-tagged peptide H5 (positions 1 to 110 of the human IgG4 heavy chain constant region) (human, UniProt P01861 1-110 = IgG part)
T11 construct: E. coli lysate on Western blot; not shown: GST tag (glutathione S-transferase) linked to the N terminal, expressed from vector pGEX-6P-1
T11 sequence (P01861 1-110): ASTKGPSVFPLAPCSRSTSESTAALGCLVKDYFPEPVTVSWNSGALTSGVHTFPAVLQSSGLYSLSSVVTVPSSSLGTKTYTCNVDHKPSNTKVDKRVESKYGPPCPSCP
Protocol: as §1

B1: MaI4-08-produced antibody (antibody, IgG1, V domains shown)
VH: EVQLQQSGPELVKPGTSVKMSCKASGYIFTSYILHWVKQKPGQGLEWIAYINPYNDGTKYKEKFKGKGTLTSDKSSSTAYMELSSLTSEDSAVYYCARSGGGYGNYAWFAYWGPGTLVTVST
VL: DIQMTQSPSSLSASLGERVSLTCRASQDIGSSLNWLQQEPDGTIKRLIYATSSLDSGVPKRFSGSRSGSDYSLTISSLESEDFVDYYCLQYASYPPTFGAGTKLELK
notes: Purified on protein G from hybridoma culture supernatant; POD-labelled for the Western blots
- binding result [1]: binds
- binding result [2]: no binding
- binding result [3]: no binding
- binding result [4]: binds
- binding result [5]: binds
- binding result [6]: no binding
- binding result [7]: no binding
- binding result [8]: binds
- binding result [9]: binds
- binding result (H-39): binds
- binding result [10]: no binding
